Laboratory results from the DeepSol protein solubility set.

Assay: soluble on expression in E. coli; label from the status in PepcDB or PDB records

Sequence | soluble on expression in E. coli
MFSILLPTWNNLALLKLCVQSIRAHSAHDHQIIVHVNDGSDGTLAWVREQGLDHTHSPGNVGICLAVNESAMLARHDYIVYLNDDMVCCPGWDTALLRRLDTLDTDLFMLSGTMIEPVDTGNPCVVVGNYGRDADTFDAARLLADVPRLARGDWLGATWPPTLVHRRWWFKLGGYSSELTPGMSSDNDFSMKLWHAGCRIFLGAGDSLVYHFQCKSTGKVKKNDGRRQFLNKWGLSQSTFDKYFLRRGTPAGADWRLPEPELTSALRWDLRRNDLTRRLRPGVPVLLEHHHHHH | soluble
SLLKKIKKALFQPKKFFQDSMWLTTSPFYLTPPRNNLFVISNLGQLNQVQSLIKIQKLTNNLLVILYTSKNLKMPKLVHQSANKNLFESIYLFELPRSPNNITPKKLLYIYRSYKKILNIIQPAHLYMLSFTGHYSYLISIAKKKNITTHLIDEGTGTYAPLLESFSYHPTKLERYLIGNNLNIKGYIDHFDILHVPFPEYAKKIFNAKKYNRFFAHAGGISINNNIANLQKKYQISKNDYIFVSQRYPISDDLYYKSIVEILNSISLQIKGKIFIKLHPKEMGNNYVMSLFLNMVEINPRLVVINEPPFLIEPLIYLTNPKGIIGLASSSLIYTPLLSPSTQCLSIGELIINLIQKYSMVENTEMIQEHLEIIKKFNFINILNDLNGVISNPLFKTEETFETLLKSAEFAYKSKNYFQAIFYWQLASKNNITLLGHKALWYYNALYNVKQIYKMEYSDIFYIDNISVDFHSKDKLTWEKIKHYYYSADNRIGRDR | not soluble
SETESDAEVACDLSNMEITEELRQYFAETERHREELLRRQQLDAERLNSYVNAEHDLYCNTRRSVEAPAERPGERRQAEMKRLYWDSAAKIQAMEANVQLSFDKHCDPKQPNYWPVIPPKF | soluble
MAEGVADRIIGLYSLGNSTREISDWLKENLGNRVSDETISSITDRVLPEIKVWRSRILDDVYSIVWINAIHYKVTDERGCTVTRAIYNVLGIDKEGHKDLLGMYISKNEGANFWLNVLTDLQNRGVHDILIAYVDGLKGWMPPKVFFRTQYYNFVSSTRYGTPLNMSVVSIRRNSSKT | not soluble
MYEQQQHFMDLQSDSGFGDDSSWLAGDDDLRLSPHQSAAGTNSGNENLDRRLLKDLVEMVPLIEHYMEHKERSSFKRRGSMIYTKMPSKESLSRRGRNASQTVPGRKKRDQEGNDDVMNNSREDDENAKALAGAEKEEMSRLREQVNDLQTKLSEKEEVLKSMEMSKNQVNEIQEKLEATNRLVAEKDMLIKSMQLQLSDTKIKLADKQAALEKTQWEAKTTGTRAIKLQEQLDAVEGDISTFTRVFETLAKTDSKKPDRDYDAVPYEFDHLPYLDDVDETDLRKMEEARLAYVAAVNTAKEREDEESLVMAAQARAYLQSLAFTY | soluble
MSNRFKFFAAIREYNPEGEVFLRIIGTGSNNNLTYRIMESRLNEVGISLGSFLSAVVPMGEPIRDFVPEERNFKVIIDGIVAMVENIEGNLEKNEEGVLVFSTEDFGLVRALDQKLSPGQYQITVRATKFSERKIFKNMNYCAEAQKIAPLVTATESESIFKRVASFFQKSPEENSLESTSKQANEEKDSSVQDLSMAELIEILPNLDQKSINQPTPAPRSMVGSVGITRTMNALVCDVIHQEKECIHFLWICEIQQISMFASKSHYLSPGKFFEGLFEKKETNWECIRFVGEKKELLKGITDGDKFKVTLTNEQGFPVFTVENLYAKLIAFEGKFVFHNKTFGNAIIGCYRPPGDYKITIKLLPIPFTTPTGKFICFEAIHFESADVLSSSNTNTTENKKKVTEKVKERGIRRPQDPKSKGIQRAVVIRVIEKGNSTDYIVWNLDSKMECIFRSAKHELERGHFFSGKFVKKSDGSLMCTNYVKQIKGFVEGGLDEHENIYFTVPIQNFQAARGNRKYNCAFSEYFGEVLEGKAENTKLSSNCNGKTVNIEWKKIGASGSDEYVWIVSKIF | not soluble
MILDRERTTGSLFERMEASSARNRQGGSIHSLRQSIRQNLRNILNTRSGSCRGAPELGIDEPEGAENFRESMSRAIEQCIERYEPRISHAEVQAVVSSASSPLDMTFHITAWVTFNETHEVLEFDMAPNGSQHYRVD | soluble
MSLKKILLLLANGFEAVEASVFTDVLGWNMLEGDGSTLVVTAGMHDKIKCTWNFTVLPEIKIKNVNVDDFEALVIPGGFEEAGFFIDAYSNSFLDLIRTFNAKGKIIASVCVGALSIGKSGILKGRTATTYNLNDRKRQYELSKFGVKILENQPIVIDKNVITSYNPSTAFNVAFTLLEMLTSTENCTKVKKLMGFIEGHHHHHH | soluble
TQAMEGLLHYINPAHAISLLSALNEERLKGQLCDVLLIVGDQKFRAHKNVLAASSEYFQSLFTNKENESQTVFQLDFCEPDAFDNVLNYIYSSSLFVEKSSLAAVQELGYSLGISFLTNIVSKTPQAPFPTCPNRKKVFVEDDENSSQKRSVIVCQSRNEAQGKTVSQNQPDVSHTSRPSPSIAVKANTNKPHVPKPIEPLHNLSLTEKSWPKDSSVVYAKSLEHSGSLDDPNRISLVKRNAVLPSKPLQDREAMDDKPGVSGQLPKGKALELALKRPRPPVLSVCSSSETPYLLKETNKGNGQGEDRNLLYYSKLGLVIPSSGSGSGNQSIDRSGPLVKSLLRRSLSMDSQVPVYSPSIDLKSSQGSSSVSSDAPGNVLCALSQKSSLKDCSEKTALDDRPQVLQPHRLRSFSASQSTDREGASPVTEVRIKTEPSSPLSDPSDIIRVTVGDAATTAAASSSSVTRDLSLKTEDDQKDMSRLPAKRRFQADRRLPFKKLKVNEHGSPVSEDNFEEGSSPTLLDADFPDSDLNKDEFGELEGTRPNKKFKCKHCLKIFRSTAGLHRHVNMYHNPEKPYACDICHKRFHTNFKVWTHCQTQHGIVKNPSPASSSHAVLDEKFQRKLIDIVREREIKKALIIKLRRGKPGFQGQSSSQAQQVIKRNLRSRAKGAYICTYCGKAYRFLSQFKQHIKMHPGEKPLGVNKVAKPKEHAPLASPVENKEVYQCRLCNAKLSSLLEQGSHERLCRNAAVCPYCSLRFFSPELKQEHESKCEYKKLTCLECMRTFKSSFSIWRHQVEVHNQNNMAPTENFSLPVLDHNGDVTGSSRPQSQPEPNKVNHIVTTKDDNVFSDSSEQVNFDSEDSSCLPEDLSLSKQLKIQVKEEPVEEAEEEAPEASTAPKEAGPSKEASLWPCEKCGKMFTVHKQLERHQELLCSVKPFICHVCNKAFRTNFRLWSHFQSHMSQASEESAHKESEVCPVPTNSPSPPPLPPPPPLPKIQPLEPDSPTGLSENPTPATEKLFVPQESDTLFYHAPPLSAITFKRQFMCKLCHRTFKTAFSLWSHEQTHN | soluble
MGSDKIHHHHHHMIKKIYFIMVVIGSILLSSCDSYLDIQPVGQVIPTTLTEYRALLTTAYGLKLIDKSVTEFRTDIAMVTDNSNSQNFYSEIEKWNDMSPKDGTREFGWAVYYSVIYYANAIIANKDNIKEGSQEDIDQLVGEAYLLRGYMHFILANLYGQPYTKEGAPETKSIPIKWDLDLEVVLPRNTVKEVYTAILSDIESARGLMHQKEWEAVYAYRFSTLSVDAMESRVRLYMGNWKEAYDAAERILVQKSTLEDLNDPEAKLPNNYTSAEMITAYEFFNDDVTSASILIPAFMEKYDANKDLRRNKYYSLSGDKYISKKSGKAEHNCTFRTGEIYLNAAEAAAQMNKLPEARTRLLQLMEKRYTPEGYAEKKKAVDAMNQADLIKEILEERALELAFEGHRWFDLRRTTRPRIEKVLNGQAYLLEQDDSRYTLRIPQSAIAANPGLLN | not soluble
MGSDKIHHHHHHMNVAILLAAGKGERMSENVPKQFLEIEGRMLFEYPLSTFLKSEAIDGVVIVTRREWFEVVEKRVFHEKVLGIVEGGDTRSQSVRSALEFLEKFSPSYVLVHDSARPFLRKKHVSEVLRRARETGAATLALKNSDALVRVENDRIEYIPRKGVYRILTPQAFSYEILKKAHENGGEWADDTEPVQKLGVKIALVEGDPLCFKVTFKEDLELARIIAREWERIP | soluble
DIQMTQSPSTLSASIGDRVTITCRASEGIYHWLAWYQQKPGKAPKLLIYKASSLASGAPSRFSGSGSGTDFTLTISSLQPDDFATYYCQQYSNYPLTFGGGTKLEIKRTVAAPSVFIFPPSDEQLKSGTASVVCLLNNFYPREAKVQWKVDNALQSGNSQESVTEQDSKDSTYSLSSTLTLSKADYEKHKVYACEVTHQGLSSPVTKS | soluble
MEAHNQFLKTFQKERHDMKEAEKDEILLMENSRRFVMFPIKYHEIWAAYKKVEASFWTAEEIELAKDTEDFQKLTDDQKTYIGNLLALSISSDNLVNKYLIENFSAQLQNPEGKSFYGFQIMMENIYSEVYSMMVDAFFKDPKNIPLFKEIANLPEVKHKAAFIERWISNDDSLYAERLVAFAAKEGIFQAGNYASMFWLTDKKIMPGLAMANRNICRDRGAYTDFSCLLFAHLRTKPNPKIIEKIITEAVEIEKEYYSNSLPVEKFGMDLKSIHTYIEFVADGLLQGFGNEKYYNAVNPFEFMEDVATAGKTTFFEKKVSDYQKASDMSKSATPSKEINFDDDF | soluble
AHDNVVIFGDSMVADPLVSEVITGRLSSQPHCPHSPTSYAEIAAKRLGLESRNFSCAGAQVHIGGPFLKTSFIAQIDTAIAAGALDTHTRRVWITQGFNDAWSGHPAAQVVATMSEVIGRIRAHAPNARIQIVGYPQITHQGQLCLVR | not soluble
MGSDKIHHHHHHMKYIINHSNDTAFNIALEEYAFKHLLDEDQIFLLWINKPSIIVGRHQNTIEEINRDYVRENGIEVVRRISGGGAVYHDLNNLNYTIISKEDENKAFDFKSFSTPVINTLAQLGVKAEFTGRNDLEIDGKKFCGNAQAYINGRIMHHGCLLFDVDLSVLANALKVSKDKFESKGVKSVRARVTNIINELPKKITVEKFRDLLLEYMKKEYPEMTEYVFSEEELAEINRIKDTKFGTWDWNYGKSPEFNVRRGIKFTSGKVEVFANVTESKIQDIKIYGDFFGIEDVAAVEDVLRGVKYEREDVLKALKTIDITRYFAGISREEIAEAVVG | soluble
MTAPTLAPIDPPARAQLLADLQGAPDWDVIVIGGGATGLGTAVDAAARGYRTLLVEAADFAKGTSSKATKLVHGGVRYLAQGNISLVREALHERGLLNRNAPHLVWPLGFVVPAYSLLDQPFYGVGLKMYDMLAGKLNLAPSRWLSRGETLRHAATVAERVNGRALRGGILYYDGQFDDARLAIALMRTLYDLGGVALNYARAVGLTRTDGRVDGVTVADALGELRVTLRAKCVVNATGVWVDAVRRMDDPAAQTMVAPSQGVHLTLPRDFLPGEDAILIPKTDDGRVLFVVPWNGHTIVGTTDTPRTDLPLDPQAGQNEIDFILATAARYLSRKPTRADVTSVWAGLRPLVKATGEASTKSLSREHTIVVSKGGLVTVTGGKWTTYRKMAQDVVDTAIQHKLLAAAPCRTSELPLHGAPTDGQPSGAPHGTPDSYYGTDLATLRALPGADRMLVKASALTEAHVRYAARHELARTVEDVLARRNRALFLDAEAALLAAPEVARILAQELGHDEAWSRATLAEFEAVAAHYRLALEHHHHHH | soluble
GMTRIASHRGGTLEFGDSTPHGFTATAAMALEEVEFDLHPTADGAIVVHHDPTLDATTDMTGAIVDMTLAKVKTATIRYGAGSHPMTLEELCALYVDSHVNFRCEIKPGVDGLPYEGFVALVIAGLERHSMLERTTFSSFLLASMDELWKATTRPRLWLVSPSVLQQLGPGAVIETAIAHSIHEIGVHIDTADAGLMAQVQAAGLDFGCWAAHTPSQITKALDLGVKVFTTDRPTLAIALRTEHRMEASV | soluble
MSLAWAPKNYIEKVVAIYDYTKDKDDELSFKEGAIIYVIKKNDDGWFEGVCNRVTGLFPGNYVESIMHYTDEGHHHHHH | soluble
